In the supplement of paper PMC10567573:

B1: CSTF3 (parent)
chain: YVPEKVKKAEKKLEENPYDLDAWS
B2: ZNF263 (parent)
chain: RTHTGEKPYKCTLCGENFSHRSNL

Variants of: B1
Assay: protein stability index of a GFP-peptide fusion (GPS, HEK-293T) (PSI 1-6); higher = more stable
Conditions: c terminus: a fixed tail appended
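Also: lentivirally expressed fusions sorted by FACS into six bins by GFP to DsRed ratio, PSI derived from sequencing read proportions per bin multiplied by bin number.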

Compared with YVPEKVKKAEKKLEENPYDLDRWS, YVPEKVKKAEKKLEENPYDLDFWS is lower in protein stability index: 2.65 for the first, 1.8 for the second.

First: YVPEKVKKAEKKLEENPYDLDWWS
Second: YVPEKVKKAEKKLEENPYDLDKWS
The protein stability index of the first is higher: 2.73 for the first, 1.36 for the second.

First: YVPEKVKKAEKKLEENPYDLDLWS
Second: YVPEKVKKAEKKLEENPYDLDVWS
The protein stability index of the first is lower: 3.05 for the first, 3.55 for the second.

First: YVPEKVKKAEKKLEENPYDLDTWS
Second: YVPEKVKKAEKKLEENPYDLDCWS
The protein stability index of the first is lower: 1.88 for the first, 2.59 for the second.

First: YVPEKVKKAEKKLEENPYDLDSWS
Second: YVPEKVKKAEKKLEENPYDLDQWS
The protein stability index of the first is lower: 2.38 for the first, 2.98 for the second.

First: YVPEKVKKAEKKLEENPYDLDYWS
Second: YVPEKVKKAEKKLEENPYDLDHWS
The protein stability index of the first is lower: 2.36 for the first, 3.16 for the second.

First: YVPEKVKKAEKKLEENPYDLDGWS
Second: YVPEKVKKAEKKLEENPYDLDMWS
The protein stability index of the first is lower: 2.4 for the first, 2.48 for the second.

First: YVPEKVKKAEKKLEENPYDLDEWS
Second: YVPEKVKKAEKKLEENPYDLDIWS
The protein stability index of the first is lower: 2.29 for the first, 2.39 for the second.

Going from YVPEKVKKAEKKLEENPYDLDPWS to YVPEKVKKAEKKLEENPYDLDNWS, the protein stability index falls from 2.47 to 2.26.

Going from YVPEKVKKAEKKLEENPYDLDDWS to YVPEKVKKAEKKLEENPYDLHAWS, the protein stability index rises from 1.67 to 2.43.

First: YVPEKVKKAEKKLEENPYDLQAWS
Second: YVPEKVKKAEKKLEENPYDLVAWS
The protein stability index of the first is higher: 2.86 for the first, 1.83 for the second.

Compared with YVPEKVKKAEKKLEENPYDLEAWS, YVPEKVKKAEKKLEENPYDLSAWS is lower in protein stability index: 3.37 for the first, 2.21 for the second.

Going from YVPEKVKKAEKKLEENPYDLMAWS to YVPEKVKKAEKKLEENPYDLIAWS, the protein stability index rises from 3.19 to 3.3.

Going from YVPEKVKKAEKKLEENPYDLNAWS to YVPEKVKKAEKKLEENPYDLLAWS, the protein stability index falls from 4.07 to 1.99.

First: YVPEKVKKAEKKLEENPYDLYAWS
Second: YVPEKVKKAEKKLEENPYDLPAWS
The protein stability index of the first is higher: 2.19 for the first, 1.43 for the second.

First: YVPEKVKKAEKKLEENPYDLRAWS
Second: YVPEKVKKAEKKLEENPYDLFAWS
The protein stability index of the first is lower: 2.03 for the first, 2.63 for the second.

Going from YVPEKVKKAEKKLEENPYDLWAWS to YVPEKVKKAEKKLEENPYDLGAWS, the protein stability index rises from 2.24 to 2.66.

Compared with YVPEKVKKAEKKLEENPYDLDARS, YVPEKVKKAEKKLEENPYDLDAVS is lower in protein stability index: 2.81 for the first, 2.38 for the second.

Compared with YVPEKVKKAEKKLEENPYDLDAHS, YVPEKVKKAEKKLEENPYDLDADS is lower in protein stability index: 1.95 for the first, 1.91 for the second.

First: YVPEKVKKAEKKLEENPYDLDAPS
Second: YVPEKVKKAEKKLEENPYDLDALS
The protein stability index of the first is higher: 3.22 for the first, 2.93 for the second.

Compared with YVPEKVKKAEKKLEENPYDLDAAS, YVPEKVKKAEKKLEENPYDLDAYS is lower in protein stability index: 1.81 for the first, 1.77 for the second.

Compared with YVPEKVKKAEKKLEENPYDLDASS, YVPEKVKKAEKKLEENPYDLDANS is higher in protein stability index: 2.6 for the first, 3.51 for the second.

Compared with YVPEKVKKAEKKLEENPYDLDAKS, YVPEKVKKAEKKLEENPYDLDATS is higher in protein stability index: 1.84 for the first, 2.64 for the second.

Going from YVPEKVKKAEKKLEENPYDLDAIS to YVPEKVKKAEKKLEENPYDLDACS, the protein stability index rises from 2.37 to 2.38.

Going from YVPEKVKKAEKKLEENPYDLDAMS to YVPEKVKKAEKKLEENPYDLDAFS, the protein stability index rises from 3.05 to 3.27.

First: YVPEKVKKAEKKLEENPYDLDAQS
Second: YVPEKVKKAEKKLEENPYDLDAES
The protein stability index of the first is higher: 1.79 for the first, 1.28 for the second.

Compared with YVPEKVKKAEKKLEENPYDLDAGS, YVPEKVKKAEKKLEENPYDLDAWD is lower in protein stability index: 3.81 for the first, 2.21 for the second.

First: YVPEKVKKAEKKLEENPYDLDAWK
Second: YVPEKVKKAEKKLEENPYDLDAWT
The protein stability index of the first is lower: 2.79 for the first, 2.81 for the second.

Compared with YVPEKVKKAEKKLEENPYDLDAWG, YVPEKVKKAEKKLEENPYDLDAWQ is lower in protein stability index: 3.98 for the first, 2.23 for the second.

Going from YVPEKVKKAEKKLEENPYDLDAWH to YVPEKVKKAEKKLEENPYDLDAWA, the protein stability index rises from 1.95 to 3.55.

Going from YVPEKVKKAEKKLEENPYDLDAWF to YVPEKVKKAEKKLEENPYDLDAWY, the protein stability index rises from 2.83 to 3.69.

First: YVPEKVKKAEKKLEENPYDLDAWW
Second: YVPEKVKKAEKKLEENPYDLDAWL
The protein stability index of the first is lower: 1.66 for the first, 3.1 for the second.

Compared with YVPEKVKKAEKKLEENPYDLDAWV, YVPEKVKKAEKKLEENPYDLDAWR is lower in protein stability index: 2.85 for the first, 2.02 for the second.

First: YVPEKVKKAEKKLEENPYDLDAWP
Second: YVPEKVKKAEKKLEENPYDLDAWE
The protein stability index of the first is higher: 2.56 for the first, 1.36 for the second.

Compared with YVPEKVKKAEKKLEENPYDLDAWC, YVPEKVKKAEKKLEENPYDLDAWM is lower in protein stability index: 3.61 for the first, 2.15 for the second.

Going from YVPEKVKKAEKKLEENPYDLDAWN to YVPEKVKKAEKKLEENPYDLDAWI, the protein stability index falls from 2.26 to 1.86.

Variants of: B2
Assay: as above
Conditions: c terminus: a fixed tail appended

First: RTHTGEKPYKCTLCGENFSHKSNL
Second: RTHTGEKPYKCTLCGENFSHPSNL
The protein stability index of the first is higher: 2.13 for the first, 2.08 for the second.

First: RWHTGEKPYKCTLCGENFSHRSNL
Second: RHHTGEKPYKCTLCGENFSHRSNL
The protein stability index of the first is higher: 2.35 for the first, 2.21 for the second.

First: RKHTGEKPYKCTLCGENFSHRSNL
Second: TTHTGEKPYKCTLCGENFSHRSNL
The protein stability index of the first is higher: 2.7 for the first, 1.99 for the second.

Going from DTHTGEKPYKCTLCGENFSHRSNL to RTHTGEFPYKCTLCGENFSHRSNL, the protein stability index falls from 1.93 to 1.85.

Compared with RTHTGEDPYKCTLCGENFSHRSNL, RTHTGEKPYKCVLCGENFSHRSNL is lower in protein stability index: 2.02 for the first, 1.65 for the second.

Compared with RTHTGEKPYKCTLCCENFSHRSNL, RTHTGEKPYKCTLCRENFSHRSNL is higher in protein stability index: 1.59 for the first, 1.75 for the second.

First: RTHTGEKPYKCTLCGENCSHRSNL
Second: RTHTGEKPYKCTLCGENGSHRSNL
The protein stability index of the first is higher: 3.74 for the first, 2.29 for the second.

First: RTHTGEKPYKCTLCGENASHRSNL
Second: RTHTGEKPYKCTLCGENHSHRSNL
The protein stability index of the first is lower: 1.86 for the first, 2.76 for the second.

Compared with RTHAGEKPYKCTLCGENFSHRSNL, RTHTGEKPYKCTLCGEAFSHRSNL is lower in protein stability index: 2.47 for the first, 1.99 for the second.

First: RTHTGEKPYKCTLCGEPFSHRSNL
Second: RTHTGEKPYKCTLCGENFSHRSNK
The protein stability index of the first is lower: 1.81 for the first, 2.63 for the second.

Compared with RTHTCEKPYKCTLCGENFSHRSNL, RTHTGEKPYKCTLCGENFGHRSNL is lower in protein stability index: 3.14 for the first, 1.96 for the second.
